Data set [1] is described as follows: Plasma protein binding (equilibrium dialysis), human. Type of data set: in vitro ADME. Here is the method: (§1) HTD 96 a/b regenerated cellulose membrane strips with mass cutoff of 12-14 kDa were soaked in ultra-pure water at room temperature for 1 hour. Each swelled membrane was then soaked in 20:80 ethanol:water for 20 minutes.
(§2) Just prior to the experiment, the membranes were re-soaked in ultra-pure water. Plasma was prepared by thawing under cold water. The plasma was centrifuged to remove any clots and pH was adjusted to 7.0-8.0. Test articles and control compounds were diluted to 2 μM. The dialysis device was loaded by transferring 150 μL of the test article (in triplicate) to the donor side. The dialysis device was placed in a humidified incubator at 37° C. with 5% CO2 in a shaking platform that rotated slowly for 4 hours. After incubation, 50 μL of the supernatant was taken from both sides and analyzed by LC-MS/MS.
(§3) To optimize the albumin binding potential of the heterobiligand, a plasma protein binding (PPB) experiment was performed. This experiment measured the amount of test article bound and free after equilibrating with plasma. Compound #6305 (folate-hshta-Lys(MPBA)-Gly-Phe-Lys(DOTA) (SEQ ID NO:6)), which contains the MPBA albumin binder, was 96.26% bound to mouse plasma and 98.34% bound to human plasma. […] In mouse and human plasmas 99.6% and 99.5% was bound, respectively.

Data set [2] in a line: Plasma protein binding (equilibrium dialysis), mouse. The format is in vitro ADME, CD-1 mouse. Here is the method:
as §1, §2, §3

A further data set addresses human recombinant NEP (Homo sapiens, UniProt P08473). The format is biochemical. Here is the method: In order to test the susceptibility of GFK and MVK linkers to NEP-mediated cleavage, the peptide (Folate-hshta-Lys(MPBA)-Gly-Phe-Lys(DOTA) (SEQ ID NO:6)) was incubated with human recombinant NEP and analyzed the solution for the presence of cleaved adducts. MALDI was utilized to monitor the cleavage of a PCC heterobiligand that contains a NEP protease recognizable sequence (G-F-K). The PCC concentration was constant and the NEP concentration was titrated down from 10 nM to 1 nM, 0.1 nM, 0.01 nM, and no NEP. The NEP-mediated cleaved adduct was identified by mass. 10 μM PCC containing the GFK linker was combined with varying amounts of NEP. […] Below 0.1 nM no cleavage was observed. • Folate-hshta-Lys(MPBA)-Gly-Phe-Lys(DOTA) (SEQ ID NO:6) • Molecular weight 2231.42
The NEP-mediated cleavage was also monitored by HPLC. In agreement with the MALDI spectra, the HPLC chromatograms show depletion of the parent brush-border heterobiligand (retention time 17.1 minutes), dose-dependent on the amount of NEP spiked into the sample (10 nM, 1 nM, 0.1 nM, 0.01 nM, and no NEP). An appearance of a new peak (retention time 16.5 minutes) in concert with the depletion of the starting material is presumed to be the cleaved folate-containing peptide.
In order to test the specificity of NEP, a non-cleavable linker (PEG3) was also assayed.
To reduce the radioactive dose to the kidney, Indi ^177Lu-7327 was constructed to incorporate a GFK linker that is susceptible to cleavage by enzymes found predominately in the kidney's brush border. These enzymes cleave off the radionuclide-chelator complex, which is quickly eliminated by the kidney for excretion in the urine. The zinc metalloprotease neprilysin (NEP) is expressed with high abundance in the kidney. […] To confirm NEP-mediated cleavage of the GFK linker in Indi 7327, the peptide was incubated with recombinant human NEP at 37° C. for 1 h and analyzed by matrix-assisted laser desorption/ionization mass spectrometry (MALDI-MS) for the evolution of cleaved adducts (FIG. 42). […] The expected cleaved adduct (mass: 1283.16 m/z) appears in the samples containing 10, 1.0, and 0.1 nM NEP. […] Below 0.1 nM NEP, no cleavage was observed. In addition to confirming the selectivity of NEP for the GFK linker, it is also important to note that the remaining portions of the Indi 7327 were impervious to the enzyme.

The next data set has as its system OVCAR3 FOLR1+ cells. Kind of data set: Flow cytometry binding to FOLR1 (+) cells. Type of data set: cell-based, human. The settings on record: OVCAR3 vs PC-3, flow cytometry. Here is the method:
Both the kyeet (SEQ ID NO:9) and hshta (SEQ ID NO:6)-derived biligands were tested by flow cytometry for binding to FOLR1 (+) and FOLR1 (−) cell lines (FIGS. 6 and 7). The human ovarian adenocarcinoma-derived cell line OVCAR3 has robust FOLR1 expression and was selected as the FOLR1 (+) cell line. The human prostate adenocarcinoma-derived cell line PC-3 was selected as a FOLR1 (−) cell line.
Competition at the cellular level was also probed.
Increasing the serum-bound fraction of the peptide may decrease first pass removal of the heterobiligand, and drive compound retention of tumor over kidney. Constructs bearing the known albumin binder 4-methylphenyl butyric acid (4-MPBA) were synthesized. These compounds were evaluated in vitro to verify binding fidelity to FOLR1. The modified heterobiligands were incubated at 400 nM with OVCAR3 and PC-3 cells for 20 minutes at 37° C. in complete media containing 20% FBS. They both bind to OVCAR3 FOLR1+ cells with similar binding affinities as the original heterobiligand studied (FIG. 14). […] Similar activity of these heterobiligands is anticipated in vivo.
(In general: In flow cytometry, cells or beads pass a laser one at a time.)

Numbered stars: 1 amine (or outer) side, 2 acyl side, 3 side chain; on linkers, the order of the positions; unused ones are H or OH. Bridge positions count the residues as written; N and C are the ends. Square brackets hold non-standard residues; d marks the D form. Triazole bridges read from a SMILES are 1,4-linked. Side chains are listed from the residue outwards. Peptide text beside a SMILES is read from it. * marks the point of attachment. ξ: configuration not given here. DOTA = O=C(O)CN1CCN(CC(=O)O)CCN(CC(=O)*)CCN(CC(=O)O)CC1; Pteroyl = Nc1nc2ncc(CNc3ccc(C(=O)*)cc3)nc2c(=O)[nH]1; Biotin = O=C1N[C@H]2[C@H](CS[C@H]2CCCCC(=O)*)N1; Butanoyl(4-(4-MePh)) = Cc1ccc(CCCC(=O)*)cc1; dLys(N3) = [N-]=[N+]=NCCCC[C@@H](N)C(=O)O; Lys(N3) = [N-]=[N+]=NCCCC[C@H](N)C(=O)O; γGlu = O=C(O)[C@H](CCC(=O)[*:2])N[*:1]; AEEEA = NCCOCCOCCOCC(=O)O; Pra = C#CC[C@H](N)C(=O)O; ξPra = C#CCC(N)C(=O)O; X2 = NOCC(=O)*

Chain of human recombinant NEP (P08473 whole entry): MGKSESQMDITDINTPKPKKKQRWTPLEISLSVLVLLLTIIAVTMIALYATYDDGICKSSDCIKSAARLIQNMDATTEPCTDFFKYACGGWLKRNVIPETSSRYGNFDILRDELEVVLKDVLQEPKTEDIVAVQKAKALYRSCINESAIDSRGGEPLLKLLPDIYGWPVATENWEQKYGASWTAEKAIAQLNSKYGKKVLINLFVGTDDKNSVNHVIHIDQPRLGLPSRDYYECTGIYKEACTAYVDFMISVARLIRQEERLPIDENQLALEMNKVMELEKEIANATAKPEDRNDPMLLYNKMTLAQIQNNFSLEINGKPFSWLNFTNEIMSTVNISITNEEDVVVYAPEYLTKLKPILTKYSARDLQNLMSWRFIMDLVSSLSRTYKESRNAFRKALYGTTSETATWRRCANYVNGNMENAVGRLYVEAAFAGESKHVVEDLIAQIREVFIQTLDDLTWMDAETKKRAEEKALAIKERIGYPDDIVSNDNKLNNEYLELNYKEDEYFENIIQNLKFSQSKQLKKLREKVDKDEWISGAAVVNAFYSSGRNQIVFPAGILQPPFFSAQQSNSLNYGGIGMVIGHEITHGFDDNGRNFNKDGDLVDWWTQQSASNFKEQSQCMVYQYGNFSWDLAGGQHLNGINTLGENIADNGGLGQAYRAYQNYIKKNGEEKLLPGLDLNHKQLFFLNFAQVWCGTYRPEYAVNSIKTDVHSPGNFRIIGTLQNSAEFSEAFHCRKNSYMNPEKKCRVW

For `Cc1ccc(CCCC(=O)NCCCC[C@@H](NC(=O)[C@H]2CCCCn3cc(nn3)CC(NC(=O)CC[C@H](NC(=O)c3ccc(NCc4cnc5nc(N)[nH]c(=O)c5n4)cc3)C(=O)O)C(=O)N[C@@H](Cc3cnc[nH]3)C(=O)N[C@@H](CO)C(=O)N[C@@H](Cc3cnc[nH]3)C(=O)N[C@@H]([C@@H](C)O)C(=O)N[C@@H](C)C(=O)N2)C(=O)NCC(=O)N[C@H](Cc2ccccc2)C(=O)N[C@H](CCCCNC(=O)COCCOCCOCCNC(=O)CN2CCN(CC(=O)O)CCN(CC(=O)O)CCN(CC(=O)O)CC2)C(=O)O)cc1` (stereo partly drawn) [compound 3302, Fol-hshta-Lys(4-MPBA)-Gly-Phe-Lys(PEG3-DOTA)] ({Pteroyl-γGlu}-[ξPra]HSHTA[dLys(N3)][dK](Butanoyl(4-(4-MePh)))G[dF][dK]([AEEEA-DOTA])-OH; triazole 1-7), the recovery at 4 h, 2 μM in data set [1] (human) was 88.1%; in data set [2] (CD-1, mouse), 103%. In addition, the fraction unbound at 4 h, 2 μM came out at 0.051 in data set [1] (human, plasma) and 0.035 in data set [2] (CD-1, mouse, plasma). Besides, the “in vitro Assay Data (NEP assay)” value with human recombinant NEP is “Cleavage of -G-F-K-”.
The like results for `C[C@@H]1NC(=O)[C@H]([C@@H](C)O)NC(=O)[C@H](Cc2cnc[nH]2)NC(=O)[C@H](CO)NC(=O)[C@H](Cc2cnc[nH]2)NC(=O)C(NC(=O)CC[C@H](NC(=O)c2ccc(NCc3cnc4nc(N)[nH]c(=O)c4n3)cc2)C(=O)O)Cc2cn(nn2)CCCC[C@H](C(=O)NCCOCCOCCOCC(=O)NCC(=O)N[C@H](Cc2ccccc2)C(=O)N[C@H](CCCCNC(=O)CN2CCN(CC(=O)O)CCN(CC(=O)O)CCN(CC(=O)O)CC2)C(=O)O)NC1=O` (stereo partly drawn) [compound 6307, Fol-hshta-PEG3-Gly-Phe-Lys(DOTA)] ({Pteroyl-γGlu}-[ξPra]HSHTA[dLys(N3)][AEEEA]G[dF][dK](DOTA)-OH; triazole 1-7) were, in that order, 81.6%, 68.9%, 0.587, 0.594 and “Cleavage of -G-F-K-”.
As to `C[C@@H](O)[C@@H]1NC(=O)[C@H](CCCCN)NC(=O)[C@@H](Cc2c[nH]c3ccccc23)NC(=O)[C@H](Cc2ccccc2)NC(=O)[C@@H](NC(=O)[C@H](N)Cc2ccccc2)CSSC[C@@H](C(=O)N[C@H](CO)[C@@H](C)O)NC1=O` [Octreotide Acetate, reference compound], the recovery at 4 h, 2 μM in data set [1] (Hu (human plasma), recovery in plasma protein binding assay, read-out: (% Recovery)) came out at 84.3%; in data set [2] (Mu (CD-1 mouse plasma), recovery in plasma protein binding assay, read-out: (% Recovery)), 84.5%. Besides, the fraction unbound at 4 h, 2 μM worked out at 0.406 in data set [1] (Hu (human plasma), read-out: Plasma % Bound) and 0.376 in data set [2] (Mu (CD-1 mouse plasma), read-out: Plasma % Bound).
As to `C[C@H](O)[C@H]1NC(=O)[C@@H](Cc2ccc(O)cc2)NC(=O)[C@@H](CCCNC(=N)N)NC(=O)[C@@H](CCC(=O)O)NC(=O)[C@@H](CC(=O)O)NC(=O)[C@@H](NC(=O)[C@H](Cc2cn(CCOCCOCCOCCNC(=O)CC[C@H](NC(=O)c3ccc(NCc4cnc5nc(N)[nH]c(=O)c5n4)cc3)C(=O)O)nn2)NC(=O)CCOCCOCCOCCOCCOCCOCCOCCOCCOCCOCCNC(=O)CCOCCOCCOCCOCCOCCOCCOCCOCCOCCOCCNC(=O)CCCC[C@@H]2SC[C@@H]3NC(=O)N[C@@H]32)Cc2cn(nn2)CCCC[C@@H](C(N)=O)NC1=O` [Folate-deryt], the “selectivity for FOLR1 (+) cells over FOLR1 (−) cells” value in the data set with OVCAR3 FOLR1+ cells is recorded as “excellent selectivity for FOLR1 (+) cells”.
Take `C[C@@H]1NC(=O)[C@H]([C@@H](C)O)NC(=O)[C@H](Cc2cnc[nH]2)NC(=O)[C@H](CO)NC(=O)[C@H](Cc2cnc[nH]2)NC(=O)C(NC(=O)CC[C@H](NC(=O)c2ccc(NCc3cnc4nc(N)[nH]c(=O)c4n3)cc2)C(=O)O)Cc2cn(nn2)CCCC[C@H](C(=O)NCCOCCOCCOCC(=O)N[C@H](CCCCNC(=O)CN2CCN(CC(=O)O)CCN(CC(=O)O)CCN(CC(=O)O)CC2)C(N)=O)NC1=O` (some centres unmarked) [compound 1189, Fol-hshta-PEG3-Lys(DOTA)] ({Pteroyl-γGlu}-[ξPra]HSHTA[dLys(N3)][AEEEA][dK](DOTA)-NH2; triazole 1-7): the recovery at 4 h, 2 μM is 102% in data set [1] (human) and 97.4% in data set [2] (CD-1, mouse). The fraction unbound at 4 h, 2 μM amounted to 0.54 in data set [1] (human, plasma) and 0.705 in data set [2] (CD-1, mouse, plasma). The “in vitro Assay Data (NEP assay)” value with human recombinant NEP was “resistant to NEP”.
Turning to `C[C@H](O)[C@H]1NC(=O)[C@@H](Cc2c[nH]cn2)NC(=O)[C@@H](CO)NC(=O)[C@@H](Cc2c[nH]cn2)NC(=O)[C@@H](NC(=O)[C@H](Cc2cn(CCOCCOCCOCCNC(=O)CC[C@H](NC(=O)c3ccc(NCc4cnc5nc(N)[nH]c(=O)c5n4)cc3)C(=O)O)nn2)NC(=O)CCOCCOCCOCCOCCOCCOCCOCCOCCOCCOCCNC(=O)CCOCCOCCOCCOCCOCCOCCOCCOCCOCCOCCNC(=O)CCCC[C@@H]2SC[C@@H]3NC(=O)N[C@@H]32)Cc2cn(nn2)CCCC[C@@H](C(N)=O)NC(=O)[C@@H](C)NC1=O` [Tz heterobiligand], the “selectivity for FOLR1 (+) cells over FOLR1 (−) cells” value with OVCAR3 FOLR1+ cells is “high selectivity for FOLR1 (+) cells”.
On the same count and under the same terms, with `C[C@H](O)[C@H]1NC(=O)[C@@H](CCC(=O)O)NC(=O)[C@@H](CCC(=O)O)NC(=O)[C@@H](Cc2ccc(O)cc2)NC(=O)[C@@H](CCCCN)NC(=O)[C@@H](NC(=O)COCCOCCOCCNC(=O)CCCC[C@@H]2SC[C@@H]3NC(=O)N[C@@H]32)Cc2cn(nn2)CCCC[C@@H](C(N)=O)NC1=O` [kyeet] ({Biotin-AEEEA}-[Pra][dK][dY][dE][dE][dT][Lys(N3)]-NH2; triazole 1-7) the entry was “slight binding selectivity for FOLR1 (+) cells”.
With `Cc1ccc(CCCC(=O)NCCCC[C@H](NC(=O)[C@@H]2CCCCn3cc(nn3)C[C@H](NC(=O)CC[C@H](NC(=O)c3ccc(NCc4cnc5nc(N)[nH]c(=O)c5n4)cc3)C(=O)O)C(=O)N[C@H](Cc3cnc[nH]3)C(=O)N[C@H](CO)C(=O)N[C@H](Cc3cnc[nH]3)C(=O)N[C@H]([C@H](C)O)C(=O)N[C@H](C)C(=O)N2)C(=O)NCC(=O)N[C@@H](Cc2ccccc2)C(=O)N[C@@H](CCCCNC(=O)CON)C(=O)O)cc1` [compound 3304, Fol-hshta-Lys(4-MPBA)-Gly-Phe-Lys(AO)] ({Pteroyl-γGlu}-[Pra][dH][dS][dH][dT][dA][Lys(N3)]K(Butanoyl(4-(4-MePh)))GFK(X2)-OH; triazole 1-7), the “in vitro Assay Data (NEP assay)” value with human recombinant NEP is “Cleavage of -G-F-K-”.

For the origin of these results see patent publication US11733246B2, “Compositions, imaging, and therapeutic methods targeting folate receptor 1 (FOLR1)” (Indi Molecular, Inc., priority 2020, dated 2023).
